# Measurements as given in ChEMBL document CHEMBL1908105, “UDP-glucuronosyltransferases and clinical drug-drug interactions” (Pharmacol Ther, 2005).
# T1: UDP-glucuronosyltransferase 1A3 (Homo sapiens, UniProt P35503)
# T1 sequence (P35503 whole entry): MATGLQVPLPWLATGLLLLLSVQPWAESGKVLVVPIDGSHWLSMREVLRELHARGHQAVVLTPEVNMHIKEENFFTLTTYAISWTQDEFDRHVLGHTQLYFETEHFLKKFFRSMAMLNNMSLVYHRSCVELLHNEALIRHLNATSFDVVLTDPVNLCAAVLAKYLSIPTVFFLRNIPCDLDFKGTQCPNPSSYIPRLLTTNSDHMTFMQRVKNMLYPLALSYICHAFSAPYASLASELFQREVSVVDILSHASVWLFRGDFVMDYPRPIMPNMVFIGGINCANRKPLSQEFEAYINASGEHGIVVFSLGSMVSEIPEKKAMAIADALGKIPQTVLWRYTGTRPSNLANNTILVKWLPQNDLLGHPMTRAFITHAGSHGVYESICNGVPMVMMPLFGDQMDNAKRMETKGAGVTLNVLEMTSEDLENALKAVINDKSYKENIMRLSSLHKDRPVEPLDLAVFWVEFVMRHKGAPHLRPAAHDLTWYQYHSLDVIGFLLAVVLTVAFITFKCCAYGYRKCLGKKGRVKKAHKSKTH
# T2: UDP-glucuronosyltransferase 2B7 (Homo sapiens, UniProt P16662)
# T2 sequence (P16662 whole entry): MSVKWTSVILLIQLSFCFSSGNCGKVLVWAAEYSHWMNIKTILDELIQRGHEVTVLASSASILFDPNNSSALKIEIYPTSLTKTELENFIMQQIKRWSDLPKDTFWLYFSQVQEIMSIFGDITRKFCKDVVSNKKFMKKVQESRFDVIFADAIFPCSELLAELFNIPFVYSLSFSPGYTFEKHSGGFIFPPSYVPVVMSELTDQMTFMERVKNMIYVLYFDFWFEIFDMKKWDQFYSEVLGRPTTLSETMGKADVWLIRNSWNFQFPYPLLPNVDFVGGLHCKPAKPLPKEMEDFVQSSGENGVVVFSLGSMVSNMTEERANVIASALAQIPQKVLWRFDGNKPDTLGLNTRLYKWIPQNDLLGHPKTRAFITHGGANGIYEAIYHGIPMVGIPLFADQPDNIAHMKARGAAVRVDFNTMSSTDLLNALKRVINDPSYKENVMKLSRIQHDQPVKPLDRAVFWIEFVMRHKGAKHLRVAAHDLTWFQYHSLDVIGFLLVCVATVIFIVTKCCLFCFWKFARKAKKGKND
# T3: UGT2B7 (Homo sapiens, UniProt P16662)
# T3 sequence (P16662 whole entry): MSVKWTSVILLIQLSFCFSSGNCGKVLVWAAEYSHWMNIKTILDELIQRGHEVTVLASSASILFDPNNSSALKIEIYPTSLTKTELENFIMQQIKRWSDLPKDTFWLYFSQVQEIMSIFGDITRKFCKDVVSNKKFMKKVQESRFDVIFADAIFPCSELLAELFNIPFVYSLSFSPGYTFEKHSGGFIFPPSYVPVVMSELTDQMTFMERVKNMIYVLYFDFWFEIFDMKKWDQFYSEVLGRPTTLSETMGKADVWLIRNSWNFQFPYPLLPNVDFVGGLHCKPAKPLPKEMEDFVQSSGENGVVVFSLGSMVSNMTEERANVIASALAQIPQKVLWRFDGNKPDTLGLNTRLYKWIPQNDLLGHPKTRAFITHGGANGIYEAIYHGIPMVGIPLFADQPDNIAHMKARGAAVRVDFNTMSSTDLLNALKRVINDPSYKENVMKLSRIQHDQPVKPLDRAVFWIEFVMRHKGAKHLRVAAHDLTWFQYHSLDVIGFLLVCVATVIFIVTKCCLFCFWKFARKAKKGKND
# Experiments:
# [1] = molecular target: UGT1A3 (Homo sapiens, UniProt P35503); assay: (§1) Drug glucuronidation reaction catalyzed by human recombinant UGT1A3; conditions: recombinant UGT1A3
# [2] = molecular target: T1, UDP-glucuronosyltransferase 1A3; assay: as §1
# [3] = molecular target: T2, UDP-glucuronosyltransferase 2B7; assay: (§2) Drug glucuronidation reaction catalyzed by human recombinant UGT2B7
# [4] = molecular target: T3, UGT2B7; assay: as §2; conditions: recombinant UGT2B7
# [5] = Inhibition of AZT glucuronidation by human UGT enzymes from liver microsomes; parameters: species or system Microsome
# [6] = substrate: CCc1c2c(nc3ccc(O)cc13)-c1cc3c(c(=O)n1C2)COC(=O)[C@]3(O)CC; assay: (§3) Drug glucuronidation reaction catalyzed by human recombinant UGT1A9
# [7] = substrate: CCC[S+]([O-])CCCN(CC)CC(O)COc1ccc(C#N)cc1; assay: as §3
# [8] = substrate: CC(=O)Nc1ccc(O)cc1; assay: as §3
# [9] = substrate: CCN(CC)C(=O)/C(C#N)=C/c1cc(O)c(O)c([N+](=O)[O-])c1; assay: as §3
# [10] = substrate: Cc1ccc(C(=O)c2cc(O)c(O)c([N+](=O)[O-])c2)cc1; assay: as §3
# [11] = substrate: O=C(c1ccc(OCCN2CCCCC2)cc1)c1c(-c2ccc(O)cc2)sc2cc(O[C@@H]3O[C@H](C(=O)O)[C@@H](O)[C@H](O)[C@H]3O)ccc12; assay: as §3
# [12] = substrate: CN1CC[C@]23c4c5ccc(O[C@@H]6O[C@H](C(=O)O)[C@@H](O)[C@H](O)[C@H]6O)c4O[C@H]2[C@@H](O)C=C[C@H]3[C@H]1C5; assay: as §3
# [13] = substrate: CN1CC[C@H](c2c(O)cc(O)c3c(=O)cc(-c4ccccc4Cl)oc23)[C@H](O)C1; assay: as §3
# [14] = substrate: COc1c(C)c2c(c(O)c1C/C=C(\C)CCC(=O)O)C(=O)OC2; assay: as §3
# [15] = substrate: O=C(c1ccc(OCCN2CCCCC2)cc1)c1c(-c2ccc(O[C@H]3O[C@H](C(=O)O)[C@@H](O)[C@H](O)[C@H]3O)cc2)sc2cc(O)ccc12; assay: as §3
# [16] = substrate: O=C1Nc2ccc(Cl)cc2C(c2ccccc2)=N[C@@H]1O; assay: not read
# [17] = substrate: CC(C)c1cccc(C(C)C)c1O; assay: not read
molecule,measurement,setting,value
CC(C(=O)O)c1ccc(-c2ccccc2)c(F)c1 (centres undefined) [FLURBIPROFEN],Km,[1],90 µM
same,Vmax,[2],45 pmol/min/mg protein
same,Vmax,[3],315 pmol/min/mg protein
same,Km,[4],28 µM
same,Ki,[5],50 µM
UDP-glucuronosyltransferase 1A9 (Homo sapiens) (protein) MACTGWTSPLPLCVCLLLTCGFAEAGKLLVVPMDGSHWFTMRSVVEKLILRGHEVVVVMPEVSWQLGRSLNCTVKTYSTSYTLEDLDREFKAFAHAQWKAQVRSIYSLLMGSYNDIFDLFFSNCRSLFKDKKLVEYLKESSFDAVFLDPFDNCGLIVAKYFSLPSVVFARGILCHYLEEGAQCPAPLSYVPRILLGFSDAMTFKERVRNHIMHLEEHLLCHRFFKNALEIASEILQTPVTEYDLYSHTSIWLLRTDFVLDYPKPVMPNMIFIGGINCHQGKPLPMEFEAYINASGEHGIVVFSLGSMVSEIPEKKAMAIADALGKIPQTVLWRYTGTRPSNLANNTILVKWLPQNDLLGHPMTRAFITHAGSHGVYESICNGVPMVMMPLFGDQMDNAKRMETKGAGVTLNVLEMTSEDLENALKAVINDKSYKENIMRLSSLHKDRPVEPLDLAVFWVEFVMRHKGAPHLRPAAHDLTWYQYHSLDVIGFLLAVVLTVAFITFKCCAYGYRKCLGKKGRVKKAHKSKTH,Km,[6],13 µM
same,Vmax,[6],2e-05 µmol/min/mg
same,Km,[7],1060 µM
same,Vmax,[7],9.2e-05 µmol/min/mg
same,Km,[8],20900 µM
same,Vmax,[8],0.0063 µmol/min/mg
same,Km,[9],10 µM
same,Vmax,[9],0.0018 µmol/min/mg
same,Km,[10],66 µM
same,Vmax,[10],0.00048 µmol/min/mg
same,Km,[11],25 µM
same,Vmax,[11],0.00032 µmol/min/mg
same,Km,[12],37400 µM
same,Vmax,[12],3.2e-05 µmol/min/mg
same,Km,[13],37 µM
same,Vmax,[13],5.6e-05 µmol/min/mg
same,Km,[14],291 µM
same,Vmax,[14],0.00838 µmol/min/mg
same,Km,[15],13 µM
same,Vmax,[15],0.00025 µmol/min/mg
same,Km,[16],12 µM
same,Vmax,[16],3e-06 µmol/min/mg
same,Km,[17],37 µM
same,Vmax,[17],0.0028 µmol/min/mg
